Assay [1] addresses hemolysin B (HlyB), ABC transporter of the HlyA type I secretion system (E. coli) (UniProt P08716).
For assay [2] the target is unchanged. This is another data set of the same source.
The target in assay [3] is HlyB∆CLD, truncated HlyB lacking the N-terminal C39 peptidase-like domain (E. coli).

Chain of UniProt P08716 (P08716 whole entry): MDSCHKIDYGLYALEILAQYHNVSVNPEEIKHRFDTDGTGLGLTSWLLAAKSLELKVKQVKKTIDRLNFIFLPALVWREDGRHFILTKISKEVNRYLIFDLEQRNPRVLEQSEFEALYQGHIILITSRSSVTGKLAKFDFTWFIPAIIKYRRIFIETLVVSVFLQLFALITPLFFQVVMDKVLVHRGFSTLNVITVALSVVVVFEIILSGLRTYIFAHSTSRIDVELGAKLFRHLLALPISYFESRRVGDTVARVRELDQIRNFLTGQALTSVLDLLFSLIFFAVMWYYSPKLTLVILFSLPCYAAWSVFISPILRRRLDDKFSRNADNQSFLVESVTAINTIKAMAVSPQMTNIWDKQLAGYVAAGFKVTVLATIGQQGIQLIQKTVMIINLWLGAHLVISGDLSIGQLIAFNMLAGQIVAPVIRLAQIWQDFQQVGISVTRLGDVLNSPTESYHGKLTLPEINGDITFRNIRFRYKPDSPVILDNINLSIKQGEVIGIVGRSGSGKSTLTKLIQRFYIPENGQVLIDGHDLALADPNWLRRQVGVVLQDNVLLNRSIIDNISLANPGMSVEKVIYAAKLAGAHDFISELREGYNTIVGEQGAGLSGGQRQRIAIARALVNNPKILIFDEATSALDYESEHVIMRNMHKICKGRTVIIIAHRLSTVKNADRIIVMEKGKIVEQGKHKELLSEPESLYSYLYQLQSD

In assay [1], “proHlyA, full-length hemolytically inactive (non-acylated) precursor form of hemolysin A (from UniProt P08715 1-1024) (natural protein)” gave an inhibition of the basal ATPase activity of HlyB in LPC-saposin-A nanoparticles by unfolded proHlyA, 0-10 µM, 4 mM ATP, 25 °C of 30% and a stimulation of ATP hydrolysis of HlyB in LPC-saposin-A nanoparticles by folded proHlyA (Ca2+), 0-10 µM, 4 mM ATP, 25 °C of 60%. In addition, in assay [2], the inhibition of the basal ATPase activity of HlyB reconstituted with LPC/DOPC mixtures or LPC alone in saposin-A nanoparticles, with 10 µM unfolded proHlyA came to 40%. In assay [3], the stimulation of the basal ATPase activity of HlyB∆CLD in LPC-saposin-A nanoparticles by folded proHlyA, 0-10 µM (Michaelis-Menten fit with substrate inhibition) stood at 2 fold and the stimulation of the basal ATPase activity of HlyB∆CLD in LPC-saposin-A nanoparticles by unfolded proHlyA, 0-10 µM, with strong substrate inhibition at higher concentrations came to 4 fold.

These data come from paper PMC6558041.
